# Measured values taken from paper PMC6045629.
# Biological target: sc E183-HLA-A2 A245V (HBV | human)
substance,measurement,value
CD8 coreceptor (from UniProt P01732 22-235),reduction of IFN-γ production of human E183 CTL after 3 h with T-REx CHO cells expressing the mutant antigen,25%
